T1: O772P 3-repeat recombinant protein (human)
T1 construct: Repeats are residues 14-452 of the entry
T1 chain: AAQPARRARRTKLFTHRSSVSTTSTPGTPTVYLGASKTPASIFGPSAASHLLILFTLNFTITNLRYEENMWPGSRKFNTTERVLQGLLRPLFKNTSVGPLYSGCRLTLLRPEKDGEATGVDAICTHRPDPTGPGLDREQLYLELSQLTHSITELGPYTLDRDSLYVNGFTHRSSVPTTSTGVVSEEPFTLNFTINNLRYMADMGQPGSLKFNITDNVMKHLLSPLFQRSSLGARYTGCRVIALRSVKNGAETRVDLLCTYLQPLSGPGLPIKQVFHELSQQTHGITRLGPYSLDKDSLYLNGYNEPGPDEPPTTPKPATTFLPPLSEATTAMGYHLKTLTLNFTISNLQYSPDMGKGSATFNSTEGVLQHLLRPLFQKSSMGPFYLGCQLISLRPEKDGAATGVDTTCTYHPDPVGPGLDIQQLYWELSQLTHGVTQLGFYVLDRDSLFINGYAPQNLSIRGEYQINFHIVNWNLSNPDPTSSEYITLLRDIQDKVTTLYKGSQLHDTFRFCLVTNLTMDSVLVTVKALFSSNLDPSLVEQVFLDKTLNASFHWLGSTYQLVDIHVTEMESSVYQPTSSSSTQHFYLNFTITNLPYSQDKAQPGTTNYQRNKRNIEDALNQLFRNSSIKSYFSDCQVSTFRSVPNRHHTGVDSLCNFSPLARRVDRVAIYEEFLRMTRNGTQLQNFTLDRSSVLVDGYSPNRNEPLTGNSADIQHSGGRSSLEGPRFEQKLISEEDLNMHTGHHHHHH

T2: O772P 3-repeat TM on transfected NIH/3T3 cells (human)
T2 construct: also called NIH/3T3 O772P 3-repeat
T2 chain: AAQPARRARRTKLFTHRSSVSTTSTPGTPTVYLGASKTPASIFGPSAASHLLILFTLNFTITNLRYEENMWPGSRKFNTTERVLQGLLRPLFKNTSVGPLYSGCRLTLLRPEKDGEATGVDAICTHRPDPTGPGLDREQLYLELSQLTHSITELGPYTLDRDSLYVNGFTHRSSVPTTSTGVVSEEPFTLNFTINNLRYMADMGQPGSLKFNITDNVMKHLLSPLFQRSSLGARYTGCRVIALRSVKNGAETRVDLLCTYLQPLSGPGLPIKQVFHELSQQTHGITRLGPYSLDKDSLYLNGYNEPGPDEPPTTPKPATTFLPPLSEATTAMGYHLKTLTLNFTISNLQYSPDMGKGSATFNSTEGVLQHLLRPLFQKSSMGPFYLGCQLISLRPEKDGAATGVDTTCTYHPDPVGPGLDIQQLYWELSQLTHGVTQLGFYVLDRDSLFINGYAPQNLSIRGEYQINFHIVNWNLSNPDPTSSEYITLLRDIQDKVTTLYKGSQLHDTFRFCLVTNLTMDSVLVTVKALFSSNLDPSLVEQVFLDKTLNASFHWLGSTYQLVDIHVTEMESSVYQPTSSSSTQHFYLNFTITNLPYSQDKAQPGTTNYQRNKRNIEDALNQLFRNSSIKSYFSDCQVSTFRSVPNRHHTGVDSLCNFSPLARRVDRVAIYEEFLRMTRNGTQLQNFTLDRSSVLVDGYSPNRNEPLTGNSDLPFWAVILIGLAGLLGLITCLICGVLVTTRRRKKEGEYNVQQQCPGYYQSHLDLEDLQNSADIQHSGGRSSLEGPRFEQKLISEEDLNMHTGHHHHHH

B1: monoclonal antibody 368.1 (antibody, V domains shown)
VH: EVQLQQSGPELVRTGASVKISCKASGYSFTGFYMHWVKQSLGKSLEWIGYVSCYTGATTYTQKFKGKATFTVDTSSSTAYMQLNSLTSEDSAVYYCAREGDYYSMDFWGQGTSVTVSS
VL: DVVMTQTPLSLPVSLGDQASISCRSSQSLERTNGNTYLHWYLQKPGQSPKLLIYKVSSRFSGVPDRFSGSGSGTDFTLKISRVEAEDLGIYFCSQTTHGPPTCGGGTKLEIK
notes: Murine hybridoma antibody
B2: monoclonal antibody 501.1 (antibody, V domains shown)
VH: QIQLVQSGPELKKPGETVQISCKASGYIFTDYGMNWVKQAPGKGLKWMGCINTYTGETIYSDDFRGRFAISLETSASTAFIQINNLKNEDAATYFCARGNYRDAIDYWGQGTSVTVSS
VL: DIKMTQSPSSIYASLGERVTITCKASQDIKSYLSWYQQKPWKSPKTLIYYATTLADGVPSRFSGSGSGQDYSLIINSLESDDIATYFCLHHDESPFTFGSGTKLEI
notes: Murine hybridoma antibody
B3: monoclonal antibody 117.1 (antibody, V domains shown)
VH: QVTLKESGPGILQPSQTLSLTCSFSGFSLSTPGMGVGWIRQPSGKGLEWLAHIWWDDFKRDNPALKSRLTISKDTSSSQVFLKIASVDTADTATYYCVRVDGNFLSWYFDVWGAGTTVTVSS
VL: DAVMTQTPLSLPVSLGDQASISCRSSQSLVHSNGNTYLHWYLQKPGQSPKLLIYKVSNRFSGVPDRFSGSGSGTDFTLRISRVEAEDLGVYFCSQSRYVPWTFGGGTKLEIK
notes: Murine hybridoma antibody

How the values were obtained:
[1] = target: T1, O772P 3-repeat recombinant protein; assay: ELISA, plate-bound O772P 3-repeat
Procedure: On the next day, the plates were washed with 200 μl 1×PBST (1× phosphate-buffered saline (PBS), 0.05% Tween 20) three times and blocked with 100 μl of 1×PBST containing 1% bovine serum albumin (BSA) for 2 hours at 37° C. […] After 1 hour incubation at 37° C., the plates were then washed with 1×PBST three times. For signal detection, 100 μl of HRP (horseradish peroxidase)-conjugated sheep anti-mouse IgG (1:2000 dilution into 1×PBST+1% BSA; Amersham Biosciences) was added to each well and incubated for 1 hour at 37° C. The plates were again washed three times with 1×PBST. Finally, 100 μl¹ of a mixture of TMB (3,3′, 5,5′-tetramethylbenzidine) substrate and H₂O₂ (1:1 ratio, KPL Kirkguard Perry Laboratories) was added into each well and after a 5 minute incubation, the absorbance was measured at 405 nm with a plate reader (Molecular Devices Corp., Sunnyvale, Calif.). The assay was done in triplicate for each selected O772P hybridoma-produced antibody and data was collected and analyzed as a kinetic assay, measured over a 5 minute time period. Average values were calculated and presented. Controls for blank and individual reagents were also included in each experiment.

[2] = target: T1, O772P 3-repeat recombinant protein; assay: ELISA competition, plate-bound O772P 3-repeat; no competitor
Procedure: On the next day, the plates were washed with 200 μl 1×PBST (1× phosphate-buffered saline (PBS), 0.05% Tween 20) three times and blocked with 100 μl of 1×PBST containing 1% bovine serum albumin (BSA) for 2 hours at 37° C. […] After 1 hour incubation at 37° C., the plates were then washed with 1×PBST three times. For signal detection, 100 μl of HRP-conjugated sheep anti-mouse IgG (1:2000 dilution into 1×PBST+1% BSA, Amersham Biosciences) was added to each well and incubated for 1 hour at 37° C. The plates were washed again with 1×PBST three times. Finally, 100 μl¹ of a mixture of TMB substrate and H₂O₂ (1:1 ratio, KPL) was added into each well and the absorbance was measured at 405 nm with a plate reader (Molecular Devices Corp., Sunnyvale, Calif.). The assay was done in triplicate for each selected antibody and average values were calculated and presented. The percent inhibition compared to no competition was calculated for individual antibodies based on average values. Controls for blank and individual reagents were also included in each experiment.

[3] = target: T2, O772P 3-repeat TM on transfected …; assay: flow cytometry, NIH/3T3 cells expressing O772P 3-repeat TM; Ab 2 µg/ml
[4] = target: T3, shed CA 125/O772P polypeptide (human, UniProt Q8WXI7 1-14401, limits assumed); assay: western blot of OVCAR-3 conditioned media (Time 0, 1 hour, 6 hours, Day 1, Day 2, Day 3), chemiluminescence
T3 construct: OVCAR-3 conditioned medium in the western blot; also called high molecular weight species in OVCAR-3 supernatant

| Binder | absorbance (OD) [1] | absorbance (OD)/µg Ab [1] | absorbance [2] | % positive cells [3] | binding result [4] |
| --- | --- | --- | --- | --- | --- |
| B1 | 1.29 OD | 32 OD/µg Ab | 1.29 OD | 86% | no binding (tested: Day 3 conditioned medium) |
| B2 | 0.856 OD | 21 OD/µg Ab | 0.856 OD | 89% | – |
| B3 | 0.619 OD | 15 OD/µg Ab | 0.619 OD | 83% | – |
